Measurements taken from patent US5861491.

Columns and labels:
[1] = biological target: human serum albumin immobilized on Sepharose (human) (UniProt P02768); assay: 125I-hLF retained on HSA-Sepharose, 10 mM sodium phosphate, 0.15M NaCl, pH 7.4, no addition
[2] = biological target: human serum albumin immobilized on Sepharose (human) (UniProt P02768); assay: 125I-hLF retained on HSA-Sepharose, +0.2% Tween-20 +2 M NaCl
[3] = biological target: human serum albumin immobilized on Sepharose (human) (UniProt P02768); assay: 125I-hLF retained on HSA-Sepharose, +0.2% Tween-20 +0.25 M NaCl
[4] = biological target: human serum albumin immobilized on Sepharose (human) (UniProt P02768); assay: 125I-hLF retained on HSA-Sepharose, +0.2% Tween-20
[5] = biological target: human serum albumin immobilized on Sepharose (human) (UniProt P02768); assay: 125I-hLF retained on HSA-Sepharose, +0.2% Tween-20 +0.1% Polybrene
[6] = biological target: human serum albumin immobilized on Sepharose (human) (UniProt P02768); assay: 125I-hLF retained on HSA-Sepharose, +0.2% Tween-20 +0.5 M NaCl
[7] = biological target: caseins (casein fraction of whole bovine milk); assay: co-sedimentation of bLF with the casein pellet of whole cow milk (centrifugation only, no addition), bLF read by competitive inhibition RIA

| Substance | percentage binding [1] | percentage binding [2] | percentage binding [3] | percentage binding [4] | percentage binding [5] | percentage binding [6] | % of total bLF found in casein fraction [7] |
| --- | --- | --- | --- | --- | --- | --- | --- |
| 125I-labelled human lactoferrin (from UniProt P02788) | 8% | 4% | 4% | 9% | 4% | 3% | – |
| bovine lactoferrin (from UniProt P24627) | – | – | – | – | – | – | 21% |
